Blank lines part the entries; values can stand above or below the binder they belong to. Starred links: 1 amine or outer side, 2 acyl side, 3 side chain; linkers in the order of their positions; H or OH if unused. Non-standard residues stand in square brackets, D forms with d. No end group written: not given here. AO = 2-amino-3-(2-(aminooxy)acetamido)propanoic acid, O=C(CON[*:3])NC[C@H](N[*:1])C(=O)[*:2]
Key:
[1] = target: αvβ3, αvβ5, and α5β1 integrins on U87MG cells (human) (UniProt P06756); assay: ratio of IC50 values, competition binding on U87MG cells
[2] = target: αvβ3, αvβ5, and α5β1 integrins on U87MG cells (human) (UniProt P06756); assay: competition binding on U87MG cells, flow cytometry; competitor 5 nM Alexa488-labeled AgRP 7C; 4 °C, 10 h
[3] = target: αvβ3, αvβ5, and α5β1 integrins on U87MG cells (human) (UniProt P06756); assay: cell-based or functional assay
[4] = target: αvβ3, αvβ5, and α5β1 integrins on U87MG cells (human) (UniProt P06756); assay: competition binding on U87MG cells, flow cytometry; competitor 0.25 nM Alexa488-labeled EETI 2.5F; 4 °C, 10 h

B1: AgRP 7C Dimer (designed binder)
chain: GCVRLHESCLGQQVPCCDPAATCYCYGRGDNDLRCYC[AO]
modifications: not fully specified (residue 38, bridges); ends and bridges not checked; also: homodimer: two copies joined by oxime-bonded dialdehyde linker at X38
fold increase of apparent binding affinity compared to the monomer [1]: 4 fold
IC50 [2]: 3.2 nM

B2: EETI 2.5F Dimer (designed binder)
chain: GCPRPRGDNPPLTC[AO]QDSDCLAGCVCGPNGFCG
modifications: not fully specified (residue 15, bridges); ends and bridges not checked; also: homodimer: two copies joined by oxime-bonded dialdehyde linker at X15
Adhesion EC50 (nM), U87MG cell adhesion to fibronectin [3]: 8 nM
fold more effective than the monomer in preventing U87MG cell adhesion [3]: 100 fold
fold more potent than Cilengitide at inhibiting U87MG cell proliferation [3]: 100 fold
inhibition of U87MG proliferation, 10 nM, 72 h (AlamarBlue) [3]: 28%
inhibition of U87MG proliferation, 100 nM, 72 h (AlamarBlue) [3]: 52%
inhibition of U87MG proliferation, 500 nM, 24 h (AlamarBlue) [3]: 53%
inhibition of U87MG proliferation, 500 nM, 48 h (AlamarBlue) [3]: 68%
inhibition of U87MG proliferation, 500 nM, 72 h (AlamarBlue) [3]: 69%
inhibition of U87MG proliferation, 1000 nM, 72 h (AlamarBlue) [3]: 70%
fold increase of apparent binding affinity compared to the monomer [1]: 46 fold
IC50 [4]: 0.036 nM

Binder: GCPRPRGDNPPLTCKQDSDCLAGCVCGPNGFCG (designed binder) [EETI 2.5F]
Adhesion EC50 (nM), U87MG cell adhesion to fibronectin [3]: 180 nM
inhibition of U87MG proliferation, 10 nM, 72 h (AlamarBlue) [3]: 15%
inhibition of U87MG proliferation, 100 nM, 72 h (AlamarBlue) [3]: 30%
inhibition of U87MG proliferation, 500 nM, 24 h (AlamarBlue) [3]: 37%
inhibition of U87MG proliferation, 500 nM, 48 h (AlamarBlue) [3]: 44%
inhibition of U87MG proliferation, 500 nM, 72 h (AlamarBlue) [3]: 50%
inhibition of U87MG proliferation, 1000 nM, 72 h (AlamarBlue) [3]: 60%
IC50 [4]: 1.64 nM

Second part, the binder after the results:

IC50 [2]: 13 nM
Binder: GCVRLHESCLGQQVPCCDPAATCYCYGRGDNDLRCYCR (designed binder, not fully specified (bridges); cysteine pairing not given here) [AgRP 7C]

IC50 [4]: 1.57 nM
Binder: GCPRPRGDNPPLTC[AO]QDSDCLAGCVCGPNGFCG (designed binder, disulfide (positions not given here)) [EETI 2.5F_AO]
